For data set [1], the target named is T1, ABCG2 (Homo sapiens, UniProt Q9UNQ0).
T1 construct: expressed in transfected cells
T1 sequence (Q9UNQ0 1-655): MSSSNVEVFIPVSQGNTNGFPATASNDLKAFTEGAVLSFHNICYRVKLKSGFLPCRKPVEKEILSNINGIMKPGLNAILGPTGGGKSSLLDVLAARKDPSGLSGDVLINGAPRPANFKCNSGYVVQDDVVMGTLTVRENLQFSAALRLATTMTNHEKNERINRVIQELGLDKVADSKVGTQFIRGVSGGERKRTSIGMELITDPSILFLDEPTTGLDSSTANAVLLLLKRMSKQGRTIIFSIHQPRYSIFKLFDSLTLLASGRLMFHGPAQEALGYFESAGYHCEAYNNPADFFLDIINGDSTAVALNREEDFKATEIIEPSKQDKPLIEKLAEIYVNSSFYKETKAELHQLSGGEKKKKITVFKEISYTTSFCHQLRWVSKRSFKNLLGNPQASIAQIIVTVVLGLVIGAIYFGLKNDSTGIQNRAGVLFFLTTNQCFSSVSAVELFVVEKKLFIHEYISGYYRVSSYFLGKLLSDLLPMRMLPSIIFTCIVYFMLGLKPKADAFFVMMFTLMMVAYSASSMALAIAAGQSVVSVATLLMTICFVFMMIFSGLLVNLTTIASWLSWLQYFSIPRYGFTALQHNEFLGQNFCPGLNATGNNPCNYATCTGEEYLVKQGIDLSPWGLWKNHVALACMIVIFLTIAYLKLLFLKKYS
Nature of the data set: Flow cytometry binding to 293T cells overexpressing human ABCG2 (293T_ABCG2_OX). The arrangement: key to Binding by FACS: binding=“+”; non-significant binding=“−”. The method, then: (§1) Cell Binding Assays. Antibody binding to cells was evaluated by flow cytometry. 293T cells stably transfected to express human or cynomolgus ABCG2 (293T_ABCG2_OX) were washed once in flow cytometry buffer (PBS+2% FBS+0.02% sodium azide), resuspended at 2×10^6 cells/mL in flow cytometry buffer, and dispensed into 96-well microtiter plates at 0.1 mL/well. Recombinant antibodies were added to cells at 5 ug/mL for initial binding confirmation, or serially diluted from 100 ug/mL in flow cytometry buffer. After incubating cells on ice for 30 min, cells were washed twice with flow cytometry buffer. Bound antibody was detected with PE-labeled F(ab′)2 fragment goat anti-human IgG (Jackson ImmunoResearch) and evaluated on an Attune NxT flow cytometer. EC50 is calculated to be the concentration of antibody that gives half maximal response.
In general terms: Flow cytometry measures light scatter and fluorescence of single cells or particles in a stream.

In data set [2] the target is T1, ABCG2. Format: cell-based. The method, then:
293T_ABCG2_OX cells were washed several times and aliquoted into 96-well plates as 50 μl aliquots/well at a cell density of 2×10e6 cells per ml in phenol red-free DMEM. Cells were mixed with 50 μl antibodies or the small molecule inhibitors of ABCG2:-fumitremorgin C (FTC), or its tetracyclic analogue K0143, with a final concentration of 1 μM. Cells were then incubated in the presence of 2.5 μM Mitoxantrone 1 h at 37° C. The cells were subsequently washed twice and finally resuspended in […] PBS. Mitoxantrone fluorescence was measured using excitation at 635 nm and emission at 647 nm. Protocols was measuring efflux blockade are found in Szabo E, et al., PLoS One. 2018 Jan. 17; 13(1):e0190629; Deeken J F, et al., Mol Pharmacol. 2009 November; 76(5):946-56).

Another data set concerns cynomolgus ABCG2. Nature of the data set: Flow cytometry binding to 293T cells overexpressing cynomolgus ABCG2. The arrangement: key to Cynomolgus ABCG2 binding: binding=“+”; non-significant binding=“−”. The method, then:
as §1

The next data set concerns 293T_ABCG2_OX cells. Type of data set: cell-based, human. Conditions: cell killing by topotecan on 293T_ABCG2_OX cells; viability relative to IgG control. The method, then:
Cytotoxicity Assays. The effect of antibodies on topotecan cytotoxicity was evaluated on 293T_ABCG2_OX cells, 293T cells stably transfected to express ABCG2. Cells were plated in 0.05 mL of Assay Media (DMEM+10% FBS) at 5000 cells/well in white, flat bottom 96-well tissue culture plates. Topotecan was prepared at 2× final assay concentration by serial dilution from 200 uM in assay media containing test antibodies or control antibodies at 100 ug/mL (2× final concentration), or Fumitremorgin C, a small molecule ABCG2 inhibitor at 20 uM (2× final concentration). An equivalent volume (0.05 mL) of the topotecan/antibody mixture was added to the 293T_ABCG2_OX cells in 96-well plates. The plates were then incubated at 37° C., in 5% CO2. After 72-96 hr plates were equilibrated to room temperature and cell viability assessed using Promega® CellTiter-Glo® Luminescent Cell Viability Assay according to the manufacturer's recommended protocol. Luminescence was measured on a Molecular Devices® FlexStation® 3 Multi-Mode Microplate Reader and data analyzed using GraphPad Prism 8.0 software. Half maximal inhibitory concentration (1050) is the concentration of drug (topotecan or other chemotherapy cytotoxic agent) where the response (cell growth) is reduced by 50%.

The source of these data is patent publication US20230212305A1, “ANTI-ABCG2 ANTIBODIES AND USES THEREOF” (Kenjockety Biotechnology, Inc., priority 2020, published 2023).

Chain of cynomolgus ABCG2 (as listed by the source): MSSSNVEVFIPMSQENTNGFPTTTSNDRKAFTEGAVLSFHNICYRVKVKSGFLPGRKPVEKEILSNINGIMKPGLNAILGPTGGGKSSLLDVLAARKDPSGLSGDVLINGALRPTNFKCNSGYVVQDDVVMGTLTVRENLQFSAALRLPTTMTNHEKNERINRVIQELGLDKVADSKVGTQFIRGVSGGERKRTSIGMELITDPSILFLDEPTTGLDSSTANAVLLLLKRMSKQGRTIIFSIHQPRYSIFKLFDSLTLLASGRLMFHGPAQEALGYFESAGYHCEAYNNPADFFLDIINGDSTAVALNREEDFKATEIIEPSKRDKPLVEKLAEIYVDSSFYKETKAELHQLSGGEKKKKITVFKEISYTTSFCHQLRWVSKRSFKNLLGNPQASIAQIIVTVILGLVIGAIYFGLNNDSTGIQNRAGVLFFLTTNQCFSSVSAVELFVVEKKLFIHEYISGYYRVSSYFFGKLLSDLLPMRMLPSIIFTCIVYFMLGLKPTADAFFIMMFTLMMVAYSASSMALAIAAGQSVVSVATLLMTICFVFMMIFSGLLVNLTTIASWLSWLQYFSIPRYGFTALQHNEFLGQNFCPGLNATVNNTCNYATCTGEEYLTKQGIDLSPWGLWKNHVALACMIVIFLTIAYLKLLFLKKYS

Regarding “5D3: anti-Human ABCG2 Antibody (Clone 5D3) from R&D Systems [Antibody 5D3, reference compound]”, the “Binding by FACS” value with ABCG2 [1] (293T_ABCG2_OX cells) is given as “+”. Further, the “binding to human ABCG2 expressed on 3T3 and C6 cell lines” value in the data set with ABCG2 [1] (FIG. 1B, stably transfected cells) is “binds”. Moreover, the “Block Efflux” value with ABCG2 [2] is on record as “+”. In addition, in the data set on cynomolgus ABCG2, the “Cynomolgus ABCG2 binding” value was “+”. The “binding to cynomolgus ABCG2 (cG2) expressed by 3T3 cells” value in the data set with cynomolgus ABCG2 (FIG. 1B, 3T3 cells stably transfected with cABCG2) was “binds”. Moreover, the Killing entry in the data set with 293T_ABCG2_OX cells is “++ (viability ≥10% and <30% of IgG control)”.
